Substitutions are numbered along the chain they refer to. Names may count otherwise.
T1: human GFRα3 on HEK293/hGFRα3/hRET/SRE-luc cells (human, UniProt O60609 32-382)
T1 sequence: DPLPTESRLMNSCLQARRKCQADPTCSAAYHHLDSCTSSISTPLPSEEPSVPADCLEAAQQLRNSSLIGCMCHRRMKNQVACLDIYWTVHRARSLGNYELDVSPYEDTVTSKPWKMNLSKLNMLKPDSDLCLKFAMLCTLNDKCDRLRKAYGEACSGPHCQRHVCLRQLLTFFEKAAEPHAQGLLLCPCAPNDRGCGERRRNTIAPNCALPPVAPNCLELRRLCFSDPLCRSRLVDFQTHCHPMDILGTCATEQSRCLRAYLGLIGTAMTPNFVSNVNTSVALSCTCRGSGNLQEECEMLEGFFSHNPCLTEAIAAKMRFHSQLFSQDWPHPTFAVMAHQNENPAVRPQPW

B1: H4H2291S (antibody, human IgG4, V domains shown)
VH: EVQLVESGGGLVQPGESLRLSCAASGFTFSNYAMSWVRQAPGKGLEWVSVISGSGGSTYYADSVKGRFTMSRDNSKNTLYLQMNSLRAEDTAVYYCAKPPSRAARYFNYGMDVWGQGTTVTVSS
VL: AIRMTQSPSSVSASVGDRVTITCRASQGISSWLAWYQQKPGKAPKLLIYAASSLQSGVPSRFSGSGSGTDFTLTISSLQPEDFATYYCQQANSFPFTFGGGTKVEIK
notes: human IgG4 Fc (H4H)
B2: H4H2296S (antibody, human IgG4, V domains shown)
VH: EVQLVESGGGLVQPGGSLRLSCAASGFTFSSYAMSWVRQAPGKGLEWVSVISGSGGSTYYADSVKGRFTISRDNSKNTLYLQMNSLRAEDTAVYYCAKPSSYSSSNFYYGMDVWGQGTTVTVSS
VL: B1 VL with A1D, R3V, Q55R, S76T, Q90H, A91T, G100P
notes: human IgG4 Fc (H4H)
B3: H4H2295S (antibody, human IgG4, V domains shown)
VH: EVQLVESGGGLVQAGGSLRLSCVASGFTFSSYAMSWVRQAPGKGLEWVSAISGSGGSTYSADSVKGRFTISRDNSKNTLYLQMNSLRAEDTAVYYCTKPSSYSSSNFYYGMDVWGQGTTVTVSS
VL: B1 VL with A1D, R3Q, A50T, G68R, A91T, F94L, F96L, G100P
notes: human IgG4 Fc (H4H)
B4: H4H2357S (antibody, human IgG4, V domains shown)
VH: EVQLVESGGGLVQPGGSLRLSCAASTFTFSSYAMTWVRQAPGKGLEWVSSISGSGDSTYYADSVKGRFTISRDNSKNTLFLQMNSLRAEDTAVYYCAKKDGPGRYYVRYGMDVWGQGTTVTVSS
VL: B1 VL with A1D, R3Q, A50T, A51T, F96L, E105D
notes: human IgG4 Fc (H4H)
B5: H4H2342P (antibody, human IgG4, V domains shown)
VH: EVQLLESGGGLVQPGGSLRLSCAASGFTFSTYAMSWVRQAPGKGLEWVSAIRGNGVNTYYGDSMKGRFTISRDNSKDTLYLQMNSLRAEDTAVYYCAKNKWELLVFEYWGQGTLVTVSS
VL: DIQMTQSPSSLSASVGDRVTITCRASQDISNYLAWYQQKPGKVPKLLIYAASTLQSGVPFRFSGSGSGTDFTLTISSLQPEDVATYYCQKYNSAPPFGPGTKVDIK
notes: human IgG4 Fc (H4H)
B6: H4H2352S (antibody, human IgG4, V domains shown)
VH: EVQLVQSGAEVKKPGASVKVSCKASGYTFTNYGITWVRQAPGQGLEWMGWISAYNGNTGYAQKFQGRVTMTTDTSTSTAYMELRSLRSDDTAVYYCAREDYDFWRAFDIWGQGTMVTVSS
VL: EIVLTQSPGTLSLSPGERATLSCRASQSVSSTYLAWLQQKPGQAPRLLIYGASSRATGIPDRFSGSGSGTDFTLTINRLEPEDFAVYYCQQYAYSPYTFGQGTKLEIK
notes: human IgG4 Fc (H4H); also called H4H2352S-1
B7: H4H2292S (antibody, human IgG4, V domains shown)
VH: EVQLVESGGGVVQPGRSLRLSCAASGFTFSSYGMHWVRQAPGKGLEWVSFIWYDGSNKYYADSVKGRFTISRDNSKNTLYLQMNSLTAEDTAVYYCARRGILTGTTAFDIWGQGTMVTVSS
VL: DIQMTQSPSSLSASVGDRVTITCRASQSISSYLNWYQQKPGKAPKLLIYAASSLQSGVPSRFSGSGSGTDFTLTIRSLIPEDFATYYCQQTYNTPFTFGPGTKVEIK
notes: human IgG4 Fc (H4H)
B8: H4H2355S (antibody, human IgG4, V domains shown)
VH: EVQLVESGGGLVQPGGSLRLSCAASGFTFSSYAMSWVRQVPGKGLEWVSAISGSGDNTYNAESVKGRFTISRDNSKNMLYLQMNSLRAEDTAVYYCAKTKFSSSLLFDYWGQGTLVTVSS
VL: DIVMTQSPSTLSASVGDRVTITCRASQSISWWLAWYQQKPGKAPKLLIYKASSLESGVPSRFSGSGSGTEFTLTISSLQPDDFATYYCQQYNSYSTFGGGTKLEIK
notes: human IgG4 Fc (H4H)
B9: H4H2243N2 (antibody, human IgG4, V domains shown)
VH: QVQLVQSGAEVKKPGASVKVSCKASGYTFTSYGIIWVRQAPGQGLEWMGWISGYNGNTNYAQNLQGRVTMTTDTSTTTAYMELRSLRSDDTAVYYCARWGIATRPYYYYGMDVWGQGTTVTVSS
VL: DIQMTQSPSSLSASVGDRVTITCRASQDITNYLAWFQQKPGKAPKSLIYAASSLQSGVPSKFSGSGSGTDFTLTISSLQPEDFATYYCQQYNSYPPTFGPGTKVDIK
notes: human IgG4 Fc (H4H)

target: T2, human GFRα3 expressed with a C-terminal myc-myc-hexahistidine tag (human, UniProt O60609 32-374, biotinylated (sites not given) in ELISA format 2 and in the Octet cross-competition; not in SPR); assay: SPR, Ab captured, 37C
T2 construct: also called hGFRα3-mmh; hGFRα3-mmH
Outline: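 First, each antibody was captured on an anti-mouse or anti-human IgG chip surface. Next, antigen was injected in 3-fold series, 200–7.4 nM for mmh and 100–3.7 nM for hFc constructs, with association monitored up to 4 min and dissociation up to 20 min. Finally, the traces were fitted to a 1:1 model.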

| Kd | koff | kon | t1/2 | Binder |
| --- | --- | --- | --- | --- |
| 0.58 nM | 0.000323 s⁻¹ | 558000 M⁻¹ s⁻¹ | 36 min | B1 |
| 0.802 nM | 0.000614 s⁻¹ | 765000 M⁻¹ s⁻¹ | 19 min | B2 |
| 1.77 nM | 0.00119 s⁻¹ | 669000 M⁻¹ s⁻¹ | 10 min | B3 |
| 7.12 nM | 0.0021 s⁻¹ | 295000 M⁻¹ s⁻¹ | 6 min | B4 |
| 2.03 nM | 0.000671 s⁻¹ | 330000 M⁻¹ s⁻¹ | 17 min | B5 |
| 0.118 nM | 0.000139 s⁻¹ | 1.18e+06 M⁻¹ s⁻¹ | 83 min | B6 |
| 1.94 nM | 0.000249 s⁻¹ | 128000 M⁻¹ s⁻¹ | 46 min | B7 |
| 4.37 nM | 0.00123 s⁻¹ | 281000 M⁻¹ s⁻¹ | 9 min | B8 |
| 5.2 nM | 0.00244 s⁻¹ | 469000 M⁻¹ s⁻¹ | 5 min | B9 |

target: T1, human GFRα3 on …; assay: cell-based or functional assay

| IC50 (SRE-luc, HEK293/hGFRα3/hRET cells, 100 pM hARTEMIN-mmH) | Binder |
| --- | --- |
| 1.3 nM | B1 |
| 1.4 nM | B2 |
| 1.5 nM | B3 |
| 4.9 nM | B4 |
| 1 nM | B5 |
| 0.92 nM | B6 |
| 4.6 nM | B7 |
| 2.3 nM | B8 |
| 0.3 nM | B9 |

target: T2, human GFRα3 expressed with a C-terminal …; assay: Octet cross-competition; biotin-hGFRα3-mmH pre-saturated with first antibody H4H2291S
Protocol: (§1) A cross-competition assay was conducted to assess the ability of select antibodies to compete with one another for binding to human GFRα3 using an Octet RED384 biosensor (Fortebio Inc.). The entire experiment was performed at 25° C. with the flow rate of 1000 rpm in Octet HBST buffer (0.01 M HEPES pH7.4, 0.15M NaCl, 3 mM EDTA, 0.05% v/v Surfactant P20, 0.1 mg/mL BSA). To assess whether 2 antibodies were able to compete with one another for binding to their respective epitopes on biotinylated recombinant human GFRα3 expressed with a C-terminal myc-myc-hexahistidine tag (biotin-hGFRα3-mmH; SEQ ID:370), around ˜1.2 nm of biotin-hGFRα3-mmH was first captured onto streptavidin-coated Octet sensor tips (Fortebio Inc, #18-5019) by submerging the tips for 1 minute into a 10 μg/mL solution of biotin-hGFRα3-mmH. The antigen coated sensor tips were then placed into wells containing 25 μg/mL solution of a first anti-GFRα3 monoclonal antibody for 4 minutes to saturate the biotin-hGFRα3-mmH surface. The sensor tips were then subsequently dipped into wells containing 25 μ/mL solution of a second anti-GFRα3 monoclonal antibody. The sensor tips were washed in Octet HBST buffer in between every step of the experiment. The real-time binding response was monitored during the course of the experiment and the binding response at the end of every step was recorded as shown in FIG. 9. The response of mAb-2 binding to biotin-hGFRα3-mmH pre-complexed with the first antibody was compared and competitive/non-competitive behavior of different anti-GFRα3 monoclonal antibodies was determined.

| binding response of second antibody (nm) | Binder |
| --- | --- |
| 0.05 nm | B1 |
| -0.01 nm | B2 |
| 0 nm | B3 |
| 0 nm | B4 |
| -0.01 nm | B5 |
| 2.03 nm | B6 |
| 1.94 nm | B7 |
| 0 nm | B8 |
| 0 nm | B9 |

target: T2, human GFRα3 expressed with a C-terminal …; assay: Octet cross-competition; biotin-hGFRα3-mmH pre-saturated with first antibody H4H2292S
Protocol: as §1

| binding response of second antibody (nm) | Binder |
| --- | --- |
| 2.81 nm | B1 |
| 2.36 nm | B2 |
| 2.31 nm | B3 |
| 2.43 nm | B4 |
| 2.16 nm | B5 |
| 0.34 nm | B6 |
| 0.11 nm | B7 |
| 2.07 nm | B8 |
| 1.91 nm | B9 |

target: T2, human GFRα3 expressed with a C-terminal …; assay: Octet cross-competition; biotin-hGFRα3-mmH pre-saturated with first antibody H4H2295S
Protocol: as §1

| binding response of second antibody (nm) | Binder |
| --- | --- |
| 0.2 nm | B1 |
| 0.07 nm | B2 |
| 0.05 nm | B3 |
| 0.05 nm | B4 |
| 0.01 nm | B5 |
| 1.85 nm | B6 |
| 1.8 nm | B7 |
| 0.02 nm | B8 |
| 0.01 nm | B9 |

target: T2, human GFRα3 expressed with a C-terminal …; assay: Octet cross-competition; biotin-hGFRα3-mmH pre-saturated with first antibody H4H2352S
Protocol: as §1

| binding response of second antibody (nm) | Binder |
| --- | --- |
| 2.63 nm | B1 |
| 2.35 nm | B2 |
| 2.31 nm | B3 |
| 2.45 nm | B4 |
| 2.08 nm | B5 |
| 0.1 nm | B6 |
| 0.15 nm | B7 |
| 2.12 nm | B8 |
| 0.13 nm | B9 |

target: T2, human GFRα3 expressed with a C-terminal …; assay: Octet cross-competition; biotin-hGFRα3-mmH pre-saturated with first antibody H4H2243N2
Protocol: as §1

| binding response of second antibody (nm) | Binder |
| --- | --- |
| 0.52 nm | B1 |
| 0.33 nm | B2 |
| 0.39 nm | B3 |
| 0.32 nm | B4 |
| 0.15 nm | B5 |
| 0.46 nm | B6 |
| 1.7 nm | B7 |
| 0.24 nm | B8 |
| 0.06 nm | B9 |

Source: patent publication US20140056903A1 (Regeneron, published 2014)
